Here are results for 14 molecules from paper PMC11417369, “DNA sequence and chromatin differentiate sequence-specific transcription factor binding in the human malaria parasite Plasmodium falciparum”.

Data set [1] concerns the target T1, SIP2 D1 (Plasmodium falciparum, UniProt C6KSN9 177-235).
T1 sequence: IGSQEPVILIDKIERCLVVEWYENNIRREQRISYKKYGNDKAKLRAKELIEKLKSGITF
Nature of the data set: gcPBM; about 25 ug protein; PBS, 1% milk, 0.2 mg/ml BSA, salmon testes DNA, 0.03% Triton X-100. The following applies: tags: N-terminal GST (pGEX-4T-1), kept; label: surface-attached array probe.

In data set [2] the target is AP2-I D3 (Plasmodium falciparum, UniProt Q8IJW6 910-1027). The data set is described as above. The note with it: tags: N-terminal GST (pGEX-4T-1), kept; label: surface-attached array probe.

B1: GTGCAC_negctrl_site283 (dsDNA)
DNA 1: ATAATTCCAAGAATTTCATATATCTGAATTTTAGGT
DNA 2: ACCTAAAATTCAGATATATGAAATTCTTGGAATTAT
Turning to B1, the binding signal in data set [1] was 6.91 ln median PBM intensity, better of two orientations; in data set [2] it was 6.92 ln median PBM intensity, better of two orientations.

B2: GTGCAC_site10418 (dsDNA)
DNA 1: CTTTTCTATTTTTTCGTGCACTATAAATATTTTAAT
DNA 2: ATTAAAATATTTATAGTGCACGAAAAAATAGAAAAG
On to B2, for which the binding signal in data set [1] is 10.6 ln median PBM intensity, better of two orientations; in data set [2] it was 12.3 ln median PBM intensity, better of two orientations.

B3: GTGCAC_negctrl_site45 (dsDNA)
DNA 1: TTATGTTGCGAGTTCTTAAGATATAAAAAATTCTTC
DNA 2: GAAGAATTTTTTATATCTTAAGAACTCGCAACATAA
B3: the binding signal was 6.87 ln median PBM intensity, better of two orientations in data set [1] and 7.08 ln median PBM intensity, better of two orientations in data set [2].

B4: GTGCAC_negctrl_site129 (dsDNA)
DNA 1: AATTTAATCCGTAATAAGAAAAGAAAAAAAAAAAGA
DNA 2: TCTTTTTTTTTTTCTTTTCTTATTACGGATTAAATT
As to B4, the binding signal in data set [1] is 6.91 ln median PBM intensity, better of two orientations; in data set [2] it was 7.24 ln median PBM intensity, better of two orientations.

B5: GTGCAC_negctrl_site214 (dsDNA)
DNA 1: ACCCAAGAGAAAAGAGAAAGAAATATGTGTATATTG
DNA 2: CAATATACACATATTTCTTTCTCTTTTCTCTTGGGT
For the molecule B5, the binding signal in data set [1] is 6.82 ln median PBM intensity, better of two orientations; in data set [2], 7.02 ln median PBM intensity, better of two orientations.

B6: GTGCAC_negctrl_site170 (dsDNA)
DNA 1: AATATATTTTGATATGAACAATTAATAATTTCAAAT
DNA 2: ATTTGAAATTATTAATTGTTCATATCAAAATATATT
On to B6, for which the binding signal was 6.86 ln median PBM intensity, better of two orientations in data set [1] and 7.19 ln median PBM intensity, better of two orientations in data set [2].

B7: GTGCAC_negctrl_site613 (dsDNA)
DNA 1: TACTCAAAAATTAATTAGCATAATATATATAAAAAT
DNA 2: ATTTTTATATATATTATGCTAATTAATTTTTGAGTA
For B7, the binding signal was 6.83 ln median PBM intensity, better of two orientations in data set [1] and 7.28 ln median PBM intensity, better of two orientations in data set [2].

B8: GTGCAC_negctrl_site491 (dsDNA)
DNA 1: TTTTTTATTTTTTACATATTTAGCTCATATTTATAT
DNA 2: ATATAAATATGAGCTAAATATGTAAAAAATAAAAAA
Consider B8, for which the binding signal in data set [1] is 6.81 ln median PBM intensity, better of two orientations; in data set [2], 7.12 ln median PBM intensity, better of two orientations.

B9: GTGCAC_negctrl_site669 (dsDNA)
DNA 1: AAAAAAAAGTATGATTCTAAATTTATGTATATATAA
DNA 2: TTATATATACATAAATTTAGAATCATACTTTTTTTT
For B9, the binding signal in data set [1] is 6.9 ln median PBM intensity, better of two orientations; in data set [2] it was 7.05 ln median PBM intensity, better of two orientations.

B10: GTGCAC_negctrl_site701 (dsDNA)
DNA 1: ATTAATATGAAACGATTATAAGAAAGAAAAGAAATG
DNA 2: CATTTCTTTTCTTTCTTATAATCGTTTCATATTAAT
Consider B10, for which the binding signal in data set [1] is 6.92 ln median PBM intensity, better of two orientations; in data set [2], 7.09 ln median PBM intensity, better of two orientations.

B11: GTGCAC_negctrl_site670 (dsDNA)
DNA 1: TAAGACTATTAAAAAATTGAGTACATGAACTGTTCA
DNA 2: TGAACAGTTCATGTACTCAATTTTTTAATAGTCTTA
For B11, the binding signal in data set [1] was 6.86 ln median PBM intensity, better of two orientations; in data set [2], 7.11 ln median PBM intensity, better of two orientations.

B12: GTGCAC_negctrl_site728 (dsDNA)
DNA 1: TTTTGTAAAATTAATTTATTATACATATATATTTCT
DNA 2: AGAAATATATATGTATAATAAATTAATTTTACAAAA
B12: the binding signal in data set [1] was 6.83 ln median PBM intensity, better of two orientations; in data set [2], 7.06 ln median PBM intensity, better of two orientations.

B13: GTGCAC_negctrl_site278 (dsDNA)
DNA 1: TTTTTTACATACAGAAATATATAATATAAAATAAAT
DNA 2: ATTTATTTTATATTATATATTTCTGTATGTAAAAAA
Turning to B13, the binding signal in data set [1] is 6.9 ln median PBM intensity, better of two orientations; in data set [2] it was 7.19 ln median PBM intensity, better of two orientations.

B14: GTGCAC_negctrl_site490 (dsDNA)
DNA 1: TGTATAAAAAGAAAAAATCGTATGTGTTATCAAAAA
DNA 2: TTTTTGATAACACATACGATTTTTTCTTTTTATACA
Turning to B14, the binding signal in data set [1] is 6.88 ln median PBM intensity, better of two orientations; in data set [2] it was 6.98 ln median PBM intensity, better of two orientations.
